Measured values: paper PMC4497498, “Kv1.3 contains an alternative C-terminal ER exit motif and is recruited into COPII vesicles by Sec24a” (BMC Biochemistry, 2015)

Tests used:
[1] = molecular target: the molecule itself; assay: native gel or EMSA + other: negative stain electron microscopy; purified Kv1.3 in Fos-12 or amphipol A8-35 on a 4-16 % native gel; negative stain EM with 2D class averages of Kv1.3 in A8-35; tetramer
[2] = molecular target: T1, Sec24a^341 (Sec24a lacking the first 341 residues) (human, UniProt O95486 342-1093); assay: membrane flotation assay; 15 ug Sec24a^341 incubated with 15 ug Kv1.3 proteoliposomes (DOPC:DOPS 95:5) in 25 mM Tris, 150 mM NaCl, 160 mM KOAc, 1 mM MgOAc, pH 7.5, 30 % sucrose, 32 °C for 1 h; overlaid with 25 % and 0 % sucrose, 200,000 g for 1 h at 4 °C; fractions read by Western blot; conditions: both partners purified
T1 construct: Sec24a, COPII cargo adaptor subunit, human; ~80 kDa; source: Hi5 insect cells (baculovirus), purified (HisPur Cobalt resin, Superose 6)
T1 sequence (looked up): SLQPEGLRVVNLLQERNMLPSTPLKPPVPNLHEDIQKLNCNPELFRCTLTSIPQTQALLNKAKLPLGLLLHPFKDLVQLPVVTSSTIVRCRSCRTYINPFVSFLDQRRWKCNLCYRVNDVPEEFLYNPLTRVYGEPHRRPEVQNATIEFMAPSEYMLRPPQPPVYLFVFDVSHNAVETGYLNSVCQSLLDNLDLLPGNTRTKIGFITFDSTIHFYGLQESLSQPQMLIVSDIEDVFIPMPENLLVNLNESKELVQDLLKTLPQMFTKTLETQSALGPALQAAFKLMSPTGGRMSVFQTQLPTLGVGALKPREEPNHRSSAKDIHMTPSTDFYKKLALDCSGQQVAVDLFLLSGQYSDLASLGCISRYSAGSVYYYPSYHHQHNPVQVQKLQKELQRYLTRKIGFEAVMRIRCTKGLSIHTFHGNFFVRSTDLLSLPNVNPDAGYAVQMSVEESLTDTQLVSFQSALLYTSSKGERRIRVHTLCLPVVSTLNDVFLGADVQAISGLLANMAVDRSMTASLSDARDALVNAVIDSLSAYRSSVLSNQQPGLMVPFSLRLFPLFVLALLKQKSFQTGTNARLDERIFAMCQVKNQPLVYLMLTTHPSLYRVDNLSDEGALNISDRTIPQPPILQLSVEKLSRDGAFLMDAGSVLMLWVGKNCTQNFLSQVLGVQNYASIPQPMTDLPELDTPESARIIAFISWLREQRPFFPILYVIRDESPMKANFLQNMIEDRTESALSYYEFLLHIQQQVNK

B1: Kv1.3 (mouse Shaker-type voltage-gated potassium channel subfamily member 3), recombinant, His6-tagged (natural protein, UniProt P16390 1-528, looked up)
chain: MTVVPGDHLLEPEAAGGGGGDPPQGGCGSGGGGGGCDRYEPLPPALPAAGEQDCCGERVVINISGLRFETQLKTLCQFPETLLGDPKRRMRYFDPLRNEYFFDRNRPSFDAILYYYQSGGRIRRPVNVPIDIFSEEIRFYQLGEEAMEKFREDEGFLREEERPLPRRDFQRQVWLLFEYPESSGPARGIAIVSVLVILISIVIFCLETLPEFRDEKDYPASPSQDVFEAANNSTSGAPSGASSFSDPFFVVETLCIIWFSFELLVRFFACPSKATFSRNIMNLIDIVAIIPYFITLGTELAERQGNGQQAMSLAILRVIRLVRVFRIFKLSRHSKGLQILGQTLKASMRELGLLIFFLFIGVILFSSAVYFAEADDPSSGFNSIPDAFWWAVVTMTTVGYGDMHPVTIGGKIVGSLCAIAGVLTIALPVPVIVSNFNYFYHRETEGEEQAQYMHVGSCQHLSSSAEELRKARSNSTLSKSEYMVIEEGGMNHSAFPQTPFKTGNSTATCTTNNNPNSCVNIKKIFTDV
modifications: phosphorylated, sites not stated (non-dephosphorylated tetramers were used for reconstitution)
notes: Kv1.3, mouse; wild type cDNA cut from Kv1.3-pcDNA3 at the Nco and Kpn sites and ligated into pFastbac HT; Integral membrane protein; a monomer runs at ~65 kDa; No TEV cleavage of the tag is described; also called Kv1.3 tetramers; Kv1.3 proteoliposomes; source: Hi5 insect cells (baculovirus), purified (cobalt Chelating Sepharose, Superose 6) in Fos-12; reconstituted into DOPC:DOPS proteoliposomes, …
stoichiometry N [1]: 4 | binding result [2]: binds
